Patent US9766249B2, “Compositions and methods for prediction of drug sensitivity, resistance, and disease progression” (BioMarker Strategies, LLC, priority 2010, dated 2017)

B1: tissue plasminogen activator (protein, UniProt P00750 36-562, looked up)
Tissue-type plasminogen …: SYQVICRDEKTQMIYQQHQSWLRPVLRSNRVEYCWCNSGRAQCHSVPVKSCSEPRCFNGGTCQQALYFSDFVCQCPEGFAGKCCEIDTRATCYEDQGISYRGTWSTAESGAECTNWNSSALAQKPYSGRRPDAIRLGLGNHNYCRNPDRDSKPWCYVFKAGKYSSEFCSTPACSEGNSDCYFGNGSAYRGTHSLTESGASCLPWNSMILIGKVYTAQNPSAQALGLGKHNYCRNPDGDAKPWCHVLKNRRLTWEYCDVPSCSTCGLRQYSQPQFRIKGGLFADIASHPWQAAIFAKHRRSPGERFLCGGILISSCWILSAAHCFQERFPPHHLTVILGRTYRVVPGEEEQKFEVEKYIVHKEFDDDTYDNDIALLQLKSDSSRCAQESSVVRTVCLPPADLQLPDWTECELSGYGKHEALSPFYSERLKEAHVRLYPSSRCTSQHLLNRTVTDNMLCAGDTRSGGPQANLHDACQGDSGGPLVCLNDGRMTLVGIISWGLGCGQKDVPGVYTKVTNYLDWIRDNMRP
notes: modulator used for ex vivo stimulation
B2: PDGFβ: platelet-derived growth factor stimulus applied to melanoma cell lines (protein, UniProt P01127 82-190, looked up)
Platelet-derived growth …: SLGSLTIAEPAMIAECKTRTEVFEISRRLIDRTNANFLVWPPCVEVQRCSGCCNNRNVQCRPTQVQLRPVQVRKIEIVRKKPIFKKATVTLEDHLACKCETVAAARPVT

Tests used:
Assay type in all cases: cell-based
[1] = test system: human pancreatic neuroendocrine tumors (PanNETs); test: Pancreatic tumor functional signaling profile upon TPA stimulation (FIG. 18); details: tumor sample 10189 (metastatic PancNET)
Text: All samples except 10195 are examples of human pancreatic neuroendocrine tumors (PanNETs). 10195 is a sample of a human pancreatic adenocarcinoma. The data reveal differences in functional profiles based on TPA stimulation using three different phosphoprotein biomarkers (p-ERK1/2, p-GSKα/β, and p-STAT3).

[2] = test system: RPMI-7951; test: Melanoma pErk induction following stimulation by TPA (FIG. 17)
[3] = test system: RPMI-7951; test: PDGFβ stimulation and MEK inhibition of PDGFβ stimulation (FIGS. 23 and 24); details: PDGFβ stimulation

Molecule | pERK induction [1] [×] | pErk [2] | pPDGF [3]
B1 | 10 | induction | –
B2 | – | – | activated
